Reference: patent CN112048019A (LUNAN PHARMACEUTICAL GROUP CORP, dated 2020)

Key:
[1] = target: CD47蛋白 (analyte in the ForteBio assay) (human, UniProt Q08722 19-139, limits assumed); assay: BLI (ForteBio), antibody captured on Protein A sensor, CD47 protein in solution at 6 concentrations
[2] = target: CD47-his蛋白 (human); assay: screening ELISA of hybridoma supernatant on coated CD47-his
[3] = target: T1, 重组CD47-Fc融合蛋白 (human, UniProt Q08722 19-139, limits assumed); assay: competition ELISA: CD47-Fc coated, antibody blocks binding of SIRPα-His, anti-His-HRP detection
T1 construct: not shown: Fc part
T1 sequence (Q08722 19-139 limits assumed): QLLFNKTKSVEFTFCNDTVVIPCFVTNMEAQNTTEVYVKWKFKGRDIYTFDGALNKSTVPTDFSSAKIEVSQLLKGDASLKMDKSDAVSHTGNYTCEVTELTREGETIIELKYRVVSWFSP

Chain of CD47蛋白 (analyte in the ForteBio assay) (Q08722 19-139 limits assumed): as above
Chain of CD47-his蛋白 (human) (chain, as listed by the source limits assumed): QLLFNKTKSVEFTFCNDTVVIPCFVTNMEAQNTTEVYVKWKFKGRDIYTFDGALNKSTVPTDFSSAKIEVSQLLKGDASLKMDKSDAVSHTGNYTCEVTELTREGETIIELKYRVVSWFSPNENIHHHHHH

B1: 抗CD47单克隆抗体3D8 (杂交瘤细胞株3D8, CGMCC No:17293) (antibody, V domains shown)
VH: EVKLQESGAELMKPGASVKISCKATGYTFSRYWIEWVKQRPGHGLEWIGDILPGTSNTNYNEKFKGKATFTADSSSNTAYMQLSSLTSEDSAVYYCARRGLLRFDCWGQGTTVTVSS
VL: DIQLTQSPAIMSASPGEKVTMTCRASSSVSSSYLHWYQQKSGASPKLWIYSSSTLASGVPARFSGSGSGTSYSLTISSVEAEDAATYYCQQYSGYPLTFGSGTKLGIKR
Binder B1 has a Kd [1] of 0.0129 nM, a koff [1] of 1.1e-05 s⁻¹ and a kon [1] of 853000 M⁻¹ s⁻¹. The binding result [2] was “binds” and the EC50 [3] was 0.17 nM.
